The values below come from the RNAGym collection of RNA variant scans (doi:10.7554/elife.80360).

B1: Twister Ribozyme (parent)
chain: AACACUGCCAAUGCCGGUCCCAAGCCCGGAUAAAAGUGGAGGGGGCGG

The variants in this data set derive from B1. The experiment in a line: self-cleavage, relative activity (ratio to wild type); higher = more cleavage; co-transcriptional.
Take U31A A32G: the self-cleavage is 0.985.

Take A40G G48U: the self-cleavage was determined as 0.131.

As for A4U G39C, the self-cleavage turned out to be 0.0848.

Regarding U12G G16A, the self-cleavage stood at 0.864.

On to C20G A35G, for which the self-cleavage came to 0.094.

On to A11C G43A, for which the self-cleavage is 0.167.

As for U31A G47A, the self-cleavage came out at 0.628.

Regarding C15U G39A, the self-cleavage was found to be 0.314.

With C8U C9A, the self-cleavage turned out to be 0.112.

For the variant G16U G42A, the self-cleavage stood at 0.26.

On to G16U G42U, for which the self-cleavage is 0.166.

With U12A U18G, the self-cleavage worked out at 0.106.

Regarding U6A A32G, the self-cleavage was 0.987.

As for G16A G48A, the self-cleavage turned out to be 0.979.

As to A23G C46U, the self-cleavage amounted to 0.579.

Consider C27U A35U, for which the self-cleavage is 0.775.

For the variant A23G A32G, the self-cleavage turned out to be 0.402.

G29U G42U: the self-cleavage was determined as 0.261.

In the case of C8U A35G, the self-cleavage was determined as 0.559.

As to G36U G48C, the self-cleavage worked out at 0.514.

As to A33C A40U, the self-cleavage is 0.1.

Consider U31C A33G, for which the self-cleavage turned out to be 0.891.

As for A2C C26U, the self-cleavage was 0.0792.

Turning to A11G G42A, the self-cleavage came out at 0.441.

Consider A11U C14A, for which the self-cleavage turned out to be 0.915.

Consider A2U G16C, for which the self-cleavage came to 0.13.

Regarding G24A U37A, the self-cleavage came to 0.0684.

Turning to A2C C25U, the self-cleavage came out at 0.0669.

As to C21U A32G, the self-cleavage came to 0.0636.

On to C20G G38A, for which the self-cleavage was 0.0626.

For the variant A1C G28A, the self-cleavage was 0.174.

Turning to A33C G47U, the self-cleavage stood at 0.865.

C21G A35U: the self-cleavage is 0.0529.

As to C20U A34U, the self-cleavage was 0.404.

Consider C25G G42U, for which the self-cleavage was found to be 0.112.

Consider A1U A40C, for which the self-cleavage came out at 0.0671.

Turning to A4C U31G, the self-cleavage was found to be 0.177.

Consider G39C G43C, for which the self-cleavage stood at 0.0898.

For the variant C15G C46A, the self-cleavage is 0.0745.

Turning to C27U G29C, the self-cleavage turned out to be 0.124.

On to C27G C46G, for which the self-cleavage came out at 0.1.

On to A2U G44C, for which the self-cleavage is 0.439.

Take C5A A30U: the self-cleavage was determined as 0.498.

G7U A23U: the self-cleavage came out at 0.0674.

For the variant A30C A40C, the self-cleavage came out at 0.103.

As to G13A U18G, the self-cleavage came to 0.0757.

As to C3G G17U, the self-cleavage came to 0.0757.

C14U A22C: the self-cleavage is 1.15.

In the case of C21G G36C, the self-cleavage amounted to 0.0148.

With G13U C26G, the self-cleavage was determined as 0.0668.

With G13A G41A, the self-cleavage was found to be 0.157.

In the case of C3U G38U, the self-cleavage amounted to 0.409.

For the variant C20U A22C, the self-cleavage was determined as 1.01.

As to G29U G47A, the self-cleavage was found to be 0.71.

For C27U G44U, the self-cleavage turned out to be 0.774.

Consider A34U C46G, for which the self-cleavage stood at 0.839.

On to A34U G48C, for which the self-cleavage was 0.855.

In the case of U6A G36U, the self-cleavage came to 0.202.

With G7A A11C, the self-cleavage amounted to 0.0895.

For C8A C19A, the self-cleavage is 0.0947.

For C14G G28A, the self-cleavage came to 0.162.

For the variant C15A C27G, the self-cleavage is 0.0735.

As to C5A C19U, the self-cleavage turned out to be 0.424.

Take A35G G48A: the self-cleavage came to 0.913.

With C5U G24A, the self-cleavage came to 0.058.

U6C G47U: the self-cleavage was found to be 0.575.

For U12C C26U, the self-cleavage was determined as 0.333.

On to A40G G42A, for which the self-cleavage was 0.113.

As for A1C U12A, the self-cleavage came to 0.223.

Consider A1C A40U, for which the self-cleavage was determined as 0.11.

For the variant C5G A22U, the self-cleavage amounted to 0.401.

Turning to A4U G47A, the self-cleavage was 0.0604.

Consider A22G C26A, for which the self-cleavage worked out at 0.0908.

As to C19U C25A, the self-cleavage was 0.113.

Take U12C G44U: the self-cleavage worked out at 0.902.

On to G13A G36C, for which the self-cleavage stood at 0.118.

U31A G41A: the self-cleavage was 0.452.

Turning to C14G G43C, the self-cleavage turned out to be 0.0465.

In the case of A30C A35C, the self-cleavage is 0.808.

Take C8A G24U: the self-cleavage was found to be 0.841.

As for C26G A33U, the self-cleavage stood at 0.135.

As to A33G G47C, the self-cleavage worked out at 0.394.

With G13C G16A, the self-cleavage stood at 0.129.

C9G A34U: the self-cleavage came out at 0.47.

As for C25G A34G, the self-cleavage stood at 0.124.

Turning to U12A C25U, the self-cleavage is 0.947.

Regarding C15U C21G, the self-cleavage is 0.0408.

With G41U G48C, the self-cleavage stood at 0.738.

Turning to A4U C26U, the self-cleavage was determined as 0.0595.

On to C3G G16A, for which the self-cleavage worked out at 0.271.

As for G13A G48A, the self-cleavage amounted to 0.659.

For the variant A11G G17C, the self-cleavage turned out to be 0.0792.

Take G16C G17C: the self-cleavage worked out at 0.0907.

Take C5A A40G: the self-cleavage is 0.0921.

For the variant A23C A33G, the self-cleavage is 0.0917.

G43A G44A: the self-cleavage stood at 0.267.

G13C A32G: the self-cleavage was determined as 0.255.

In the case of U12C C46U, the self-cleavage came to 0.957.

Regarding U6C G17A, the self-cleavage was 0.0938.

Turning to G16U C46G, the self-cleavage was 0.963.

Turning to C19G C21G, the self-cleavage was found to be 0.0223.

For G17U G24U, the self-cleavage came out at 0.0893.

As to C3A G43U, the self-cleavage was 0.0615.

G16C A34C: the self-cleavage turned out to be 0.0817.

On to C14A G44U, for which the self-cleavage turned out to be 0.883.

Turning to A10C A23U, the self-cleavage was 0.664.

As to A34C, the self-cleavage was found to be 0.378.

For the variant C20A G43A, the self-cleavage is 0.118.

With C20U G39C, the self-cleavage was 0.0926.

In the case of A2C A23G, the self-cleavage turned out to be 0.06.

Consider U12A A22U, for which the self-cleavage worked out at 1.02.

On to C3A A40G, for which the self-cleavage was found to be 0.0819.

Take C9G A35U: the self-cleavage turned out to be 0.695.

On to C8U G39C, for which the self-cleavage worked out at 0.147.

G43U C46G: the self-cleavage turned out to be 0.409.

As to A34G G41U, the self-cleavage was 0.131.

G36U G41U: the self-cleavage was 0.0887.

For the variant A4G A11U, the self-cleavage stood at 0.996.

As to G7C C27A, the self-cleavage was determined as 0.0706.

Turning to C3A A23U, the self-cleavage worked out at 0.133.

For the variant C14A A22U, the self-cleavage was 0.657.

On to C5U C25A, for which the self-cleavage came to 0.0792.

With U18A G47U, the self-cleavage worked out at 0.174.

On to A10G C20A, for which the self-cleavage was found to be 0.136.

As for A11C G44U, the self-cleavage was 0.791.

With G29C A33U, the self-cleavage was 0.579.

In the case of G29C A33G, the self-cleavage came to 0.573.

C9U A32G: the self-cleavage came out at 0.729.

Take U18G G45A: the self-cleavage turned out to be 0.0963.

On to C25A G45C, for which the self-cleavage came to 0.0975.

With A35C G38A, the self-cleavage was 0.9.

As for A1G A40U, the self-cleavage worked out at 0.204.

For the variant A35G G42U, the self-cleavage was determined as 0.133.

With U12C G16A, the self-cleavage stood at 0.938.

For the variant A4C C27U, the self-cleavage was 0.112.

Consider A23C G29C, for which the self-cleavage was found to be 0.0814.

G29U A32U: the self-cleavage is 0.911.

With A1C G36C, the self-cleavage was 0.159.

In the case of G36C G48C, the self-cleavage turned out to be 0.657.

As to C14A C15A, the self-cleavage came to 0.885.

Regarding U37C G39A, the self-cleavage stood at 0.219.

Regarding C5A G16U, the self-cleavage was found to be 0.237.

In the case of A4G G13U, the self-cleavage worked out at 0.327.

As for C5G U37A, the self-cleavage was found to be 0.404.

Take G28A A40G: the self-cleavage amounted to 0.188.

Turning to A22U G24A, the self-cleavage stood at 0.0776.

Regarding C3U A32G, the self-cleavage was determined as 0.369.

As to C5U C15U, the self-cleavage amounted to 0.762.

For G7U G24U, the self-cleavage came to 0.0676.

As to C27G A34G, the self-cleavage amounted to 0.124.

As to C9A C14U, the self-cleavage turned out to be 0.697.

As for G47U G48U, the self-cleavage is 1.57.

On to G43A C46G, for which the self-cleavage was determined as 0.367.

Regarding A34C U37G, the self-cleavage came out at 0.249.

Take A1G C20U: the self-cleavage stood at 0.35.

A33G G41U: the self-cleavage was determined as 0.381.

Turning to A32G G38U, the self-cleavage is 0.846.

As to A22U C46U, the self-cleavage was determined as 0.773.

Take C15U G42C: the self-cleavage is 0.296.

Regarding C20A A30G, the self-cleavage worked out at 0.114.

For C5A A10G, the self-cleavage came out at 0.705.

On to G45A G47C, for which the self-cleavage was 0.539.

In the case of C3G G47A, the self-cleavage is 0.275.

As for A4C A10G, the self-cleavage worked out at 0.334.

Consider U31A G39A, for which the self-cleavage came out at 0.343.

On to C15A A33G, for which the self-cleavage came to 0.578.

On to G41A G48U, for which the self-cleavage turned out to be 0.511.
